Measurements published in US20260007756A1, “COMPOUND AND USE THEREOF” (COHERENT BIOPHARMA (SUZHOU) LIMITED, priority 2022, published 2026).
pIC50: −log10 of the molar value. In brackets after ≈: the same amount, converted by molar mass. Read-outs that look alike come from different tables or passages of the source. Numbered stars: 1 amine (or outer) side, 2 acyl side, 3 side chain; on linkers, the order of the positions; unused ones are H or OH. Square brackets hold non-standard residues; d marks the D form. Side chains are listed from the residue outwards. Peptide text beside a SMILES is read from it. * marks the point of attachment. EuK = O=C(O)CC[C@H](NC(=O)N[C@@H](CCCCN*)C(=O)O)C(=O)O; Pteroyl = Nc1nc2ncc(CNc3ccc(C(=O)*)cc3)nc2c(=O)[nH]1; γGlu = O=C(O)[C@H](CCC(=O)[*:2])N[*:1]; X1 = O=C(Cc1ccc(CN[*:1])cc1)[*:2]; Pra = C#CC[C@H](N)C(=O)O; CO = O=C([*:1])[*:2]

Key:
22RV1 = type: cell-based, human; settings: 22RV1, 72 h, CellTiter-Glo
Text: (§1) Negative and blank controls were set.

MDA-MB-231 = type: cell-based, human; settings: MDA-MB-231, 72 h, CellTiter-Glo
Text: as §1

[1] = tested on: HT-29 cell subcutaneous xenograft tumor; assay: Pharmacodynamic assessment, HT-29 xenograft model; type: in vivo, BALB/c nude mouse
Text: Objective: Pre-clinical assessment of the efficacy of CR202 series of compounds for treating BALB/c nude mouse model with HT-29 cell subcutaneous xenograft tumor.
Procedures: HT-29 cells were subcutaneously grafted at the right back of the mice, and the mice were randomized when the mean tumor volume reached 100-150 mm^3. After the administration, the routine monitoring included the effect on tumor growth and the effect of treatment on the normal behavior of the animals, specifically the activity, food and water intake, weight gain or loss, the eyes, the hair, and other abnormal conditions. Clinical symptoms observed during the study were recorded in the raw data. After the administration was started, the body weight and tumor size of the mice were measured periodically. The tumor volume was calculated using the following formula: V=1/2×(a×b^2), where a and b denote the long diameter and short diameter of the tumor, respectively.

Solubility study in PBS = type: physicochemical; settings: aqueous buffer, thermodynamic from solid; PBS (pH 7.2 to 7.4); read-out: Solubility, concentration
Description: The mixture was vortexed for 2 min until the solid was dissolved. The solubility was calculated as: C=m/V, C: concentration, m: sample weight, V: PBS total volume.

plasmin = settings: PBS pH 7.4, 37° C.
Description: • 1) The compounds were formulated into 500 μg/mL stock solutions with PBS (pH 7.4); • 2) 60 μL of 500 μg/mL compound stock solution was added to 420 μL PBS (pH 7.4), before 60 μL of 0.2 U/mL plasmin (or 60 μL of 0.5 U/mL sulfatase) was added, and the mixture was well mixed by gentle shaking; • 3) The cleavage reaction system in step 2) was transferred to a thermostatic incubator at 37° C. for 0 h, 1 h, 2 h, 4 h, or 24 h of incubation. Samples were taken and loaded at various time points for LC-MS analysis.

Plasma stability study 2 = type: in vitro ADME; settings: mouse plasma, 37° C.; for remaining at 0.5 h, 100 μg/mL / remaining at 1 h, 100 μg/mL / remaining at 2 h, 100 μg/mL / remaining at 4 h, 100 μg/mL / remaining at 6 h, 100 μg/mL: read-out: Residual rate of principal component
Description: • 1) The conjugate compounds were prepared into 1 mg/mL stock solutions with 0.1% TFA-acetonitrile water (1:1); • 2) 10 μL of 1 mg/mL compound stock solution was added into 90 μL of fresh plasma, and the mixture was well mixed by gentle shaking, and transferred to a thermostatic incubator at 37° C. for 0 h, 0.5 h, 1 h, 2 h, 4 h, 6 h, or 24 h of incubation; • 3) at the time points, samples were taken out and 300 μL of methanol solution (containing 10 ng/ml of terfenadine) was added for protein precipitation; • 4) the mixture was centrifuged (13 min, 4° C., 12000 rpm) and the supernatant was collected, and preserved in a −80° C. refrigerator; after collection, the samples were loaded for LC-MS analysis.

[2] = 10.9 mg/kg i.v BIW×3, day 25 after grouping
[3] = 22.7 mg/kg i.v BIW×3, day 25 after grouping

CC[C@@H]1C(=O)N(C)c2cnc(Nc3ccc(-c4cn([C@H]5CC[C@@H](N(CCOCCC#Cc6cccc7c6CN(C6CCC(=O)NC6=O)C7=O)C(=O)OCc6ccc(NC(=O)[C@H](CCCNC(N)=O)NC(=O)[C@@H](NC(=O)COCCOCCn7cc(C[C@H](NC(=O)[C@H](CCCCN)NC(=O)[C@H](CC(=O)O)NC(=O)[C@H](CC(=O)O)NC(=O)Cc8ccc(CNC(=O)NCCCC[C@H](NC(=O)N[C@@H](CCC(=O)O)C(=O)O)C(=O)O)cc8)C(=O)N[C@@H](CCCCNC(=O)CC[C@H](NC(=O)c8ccc(NCc9cnc%10[nH]c(N)nc(=O)c%10n9)cc8)C(=O)O)C(N)=O)nn7)C(C)C)c(OC)c6)CC5)nn4)cc3OC)nc2N1C1CCCC1 (stereo partly drawn) [CR202FU]
pIC50 (22RV1): 6.33
pIC50 (MDA-MB-231): 6.10

CC[C@@H]1C(=O)N(C)c2cnc(Nc3ccc(-c4cn([C@H]5CC[C@@H](N(CCOCCC#Cc6cccc7c6CN(C6CCC(=O)NC6=O)C7=O)C(=O)OCc6ccc(NC(=O)[C@H](CCCNC(N)=O)NC(=O)[C@@H](NC(=O)OCCOCCNS(=O)(=O)NC(=O)OCCn7cc(C[C@H](NC(=O)[C@H](CCCCN)NC(=O)[C@H](CC(=O)O)NC(=O)[C@H](CC(=O)O)NC(=O)Cc8ccc(CNC(=O)NCCCC[C@H](NC(=O)N[C@@H](CCC(=O)O)C(=O)O)C(=O)O)cc8)C(=O)N[C@@H](CCCCNC(=O)CC[C@H](NC(=O)c8ccc(NCc9cnc%10[nH]c(N)nc(=O)c%10n9)cc8)C(=O)O)C(N)=O)nn7)C(C)C)cc6)CC5)nn4)cc3OC)nc2N1C1CCCC1 (stereo partly drawn) [CR202GM]
pIC50 (22RV1): 6.54
pIC50 (MDA-MB-231): 6.29

CC[C@@H]1C(=O)N(C)c2cnc(Nc3ccc(-c4cn([C@H]5CC[C@@H](N(CCOCCC#Cc6cccc7c6CN(C6CCC(=O)NC6=O)C7=O)C(=O)CNC(=O)[C@@H]6CCCN6C(=O)[C@H](CCCNC(N)=O)NC(=O)[C@@H](NC(=O)COCCOCCn6cc(C[C@H](NC(=O)[C@H](CCCCN)NC(=O)[C@H](CC(=O)O)NC(=O)[C@H](CC(=O)O)NC(=O)Cc7ccc(CNC(=O)NCCCC[C@H](NC(=O)N[C@@H](CCC(=O)O)C(=O)O)C(=O)O)cc7)C(=O)N[C@@H](CCCCNC(=O)CC[C@H](NC(=O)c7ccc(NCc8cnc9[nH]c(N)nc(=O)c9n8)cc7)C(=O)O)C(N)=O)nn6)C(C)C)CC5)nn4)cc3OC)nc2N1C1CCCC1 (stereo partly drawn) [CR202GQ]
pIC50 (22RV1): 5.50
pIC50 (MDA-MB-231): 5.35

CC[C@@H]1C(=O)N(C)c2cnc(Nc3ccc(-c4cn([C@H]5CC[C@@H](N(CCOCCC#Cc6cccc7c6CN(C6CCC(=O)NC6=O)C7=O)C(=O)NCCNC(=O)OCc6ccc(NC(=O)[C@H](CCCNC(N)=O)NC(=O)[C@@H](NC(=O)COCCOCCn7cc(C[C@H](NC(=O)[C@H](CCCCN)NC(=O)[C@H](CC(=O)O)NC(=O)[C@H](CC(=O)O)NC(=O)Cc8ccc(CNC(=O)NCCCC[C@H](NC(=O)N[C@@H](CCC(=O)O)C(=O)O)C(=O)O)cc8)C(=O)N[C@@H](CCCCNC(=O)CC[C@H](NC(=O)c8ccc(NCc9cnc%10[nH]c(N)nc(=O)c%10n9)cc8)C(=O)O)C(N)=O)nn7)C(C)C)cc6)CC5)nn4)cc3OC)nc2N1C1CCCC1 (stereo partly drawn) [CR202HJ]
pIC50 (22RV1): 5.92
pIC50 (MDA-MB-231): 5.44

CCOCCNS(=O)(=O)NC(=O)OCCOCCNC(=O)[C@H](Cc1cn(CCOC(=O)NS(=O)(=O)NCCOCCOC(=O)N[C@H](C(=O)N[C@@H](CCCNC(N)=O)C(=O)Nc2ccc(COC(=O)N(CCOCCC#Cc3cccc4c3CN(C3CCC(=O)NC3=O)C4=O)[C@H]3CC[C@@H](n4cc(-c5ccc(Nc6ncc7c(n6)N(C)[C@H](CC)C(=O)N7C)cc5)nn4)CC3)cc2)C(C)C)nn1)NC(=O)CC[C@H](NC(=O)c1ccc(NCc2cnc3nc(N)nc(O)c3n2)cc1)C(=O)O (stereo partly drawn) [CR202HR]
Mean tumor volume [1, 2]: 946.05 mm^3
TGI [1, 2]: 54.51%
Mean tumor volume [1, 3]: 614.73 mm^3
TGI [1, 3]: 70.44%

CC[C@@H]1C(=O)N(C)c2cnc(Nc3ccc(-c4cn([C@H]5CC[C@@H](N(CCOCCC#Cc6cccc7c6CN(C6CCC(=O)NC6=O)C7=O)C(=O)OC[C@@H](C)SSC[C@H](NC(=O)[C@H](CCCCN)NC(=O)[C@H](CC(=O)O)NC(=O)[C@H](CC(=O)O)NC(=O)Cc6ccc(CNC(=O)NCCCC[C@H](NC(=O)N[C@@H](CCC(=O)O)C(=O)O)C(=O)O)cc6)C(=O)N[C@@H](CCCCNC(=O)CC[C@H](NC(=O)c6ccc(NCc7cnc8[nH]c(N)nc(=O)c8n7)cc6)C(=O)O)C(N)=O)CC5)nn4)cc3OC)nc2N1C1CCCC1 (stereo partly drawn) [CR202HV]
pIC50 (22RV1): 6.81
pIC50 (MDA-MB-231): 7.85

CC[C@@H]1C(=O)N(C)c2cnc(Nc3ccc(-c4cn([C@H]5CC[C@@H](N(CCOCCC#Cc6cccc7c6CN(C6CCC(=O)NC6=O)C7=O)C(=O)OCc6ccc(NC(=O)[C@H](CCCCN)NC(=O)[C@H](CC(C)C)NC(=O)[C@@H](NC(=O)COCCOCCn7cc(C[C@H](NC(=O)[C@H](CCCCN)NC(=O)[C@H](CC(=O)O)NC(=O)[C@H](CC(=O)O)NC(=O)Cc8ccc(CNC(=O)NCCCC[C@H](NC(=O)N[C@@H](CCC(=O)O)C(=O)O)C(=O)O)cc8)C(=O)N[C@@H](CCCCNC(=O)CC[C@H](NC(=O)c8ccc(NCc9cnc%10[nH]c(N)nc(=O)c%10n9)cc8)C(=O)O)C(N)=O)nn7)C(C)C)cc6)CC5)nn4)cc3OC)nc2N1C1CCCC1 (stereo partly drawn) [CR202V8]
solubility (Solubility study in PBS): 7500 µg/mL (≈ 2450 µM)
CR20274 release rate of compounds after cleavage (plasmin; 0 h): 22%
Principal component residue of compounds after cleavage (plasmin; 0 h): 8%
CR20274 release rate of compounds after cleavage (plasmin; 1 h): 100%
Principal component residue of compounds after cleavage (plasmin; 1 h): 1%
CR20274 release rate of compounds after cleavage (plasmin; 2 h): 100%
Principal component residue of compounds after cleavage (plasmin; 2 h): 1%
CR20274 release rate of compounds after cleavage (plasmin; 4 h): 100%
Principal component residue of compounds after cleavage (plasmin; 4 h): 0%
CR20274 release rate of compounds after cleavage (plasmin; 24 h): 100%
Principal component residue of compounds after cleavage (plasmin; 24 h): 0%
CR20274 release rate (actual release/theoretical release) (Plasma stability study 2; 0 h): 0.06%
Residual rate of principal component (Plasma stability study 2; 0 h): 78.37%
CR20274 release rate (actual release/theoretical release) (Plasma stability study 2; 0.5 h): 1.94%
remaining at 0.5 h, 100 μg/mL (Plasma stability study 2; 0.5 h): 50.9%
CR20274 release rate (actual release/theoretical release) (Plasma stability study 2; 1 h): 5.56%
remaining at 1 h, 100 μg/mL (Plasma stability study 2; 1 h): 59.9%
CR20274 release rate (actual release/theoretical release) (Plasma stability study 2; 2 h): 7.07%
remaining at 2 h, 100 μg/mL (Plasma stability study 2; 2 h): 49.5%
CR20274 release rate (actual release/theoretical release) (Plasma stability study 2; 4 h): 14.20%
remaining at 4 h, 100 μg/mL (Plasma stability study 2; 4 h): 41.2%
CR20274 release rate (actual release/theoretical release) (Plasma stability study 2; 6 h): 14.58%
remaining at 6 h, 100 μg/mL (Plasma stability study 2; 6 h): 32.5%
CR20274 release rate (actual release/theoretical release) (Plasma stability study 2; 24 h): 105.58%
Residual rate of principal component (Plasma stability study 2; 24 h): −2.40%
pIC50 (22RV1): 7.69
pIC50 (MDA-MB-231): 7.62

CC[C@@H]1C(=O)N(C)c2cnc(Nc3ccc(-c4cn([C@H]5CC[C@@H](N(CCOCCC#Cc6cccc7c6CN(C6CCC(=O)NC6=O)C7=O)C(=O)OCc6ccc(NC(=O)[C@H](CC(N)=O)NC(=O)[C@H](CC(N)=O)NC(=O)CNC(=O)COCCOCCn7cc(C[C@H](NC(=O)[C@H](CCCCN)NC(=O)[C@H](CC(=O)O)NC(=O)[C@H](CC(=O)O)NC(=O)Cc8ccc(CNC(=O)NCCCC[C@H](NC(=O)N[C@@H](CCC(=O)O)C(=O)O)C(=O)O)cc8)C(=O)N[C@@H](CCCCNC(=O)CC[C@H](NC(=O)c8ccc(NCc9cnc%10[nH]c(N)nc(=O)c%10n9)cc8)C(=O)O)C(N)=O)nn7)cc6)CC5)nn4)cc3OC)nc2N1C1CCCC1 (stereo partly drawn) [CR202V9]
solubility (Solubility study in PBS): 15800 µg/mL (≈ 5260 µM)
CR20274 release rate (actual release/theoretical release) (Plasma stability study 2; 0 h): 0.11%
Residual rate of principal component (Plasma stability study 2; 0 h): 99.22%
CR20274 release rate (actual release/theoretical release) (Plasma stability study 2; 0.5 h): 0.17%
remaining at 0.5 h, 100 μg/mL (Plasma stability study 2; 0.5 h): 99.8%
CR20274 release rate (actual release/theoretical release) (Plasma stability study 2; 1 h): 0.22%
remaining at 1 h, 100 μg/mL (Plasma stability study 2; 1 h): 98.4%
CR20274 release rate (actual release/theoretical release) (Plasma stability study 2; 2 h): 0.21%
remaining at 2 h, 100 μg/mL (Plasma stability study 2; 2 h): 89.6%
CR20274 release rate (actual release/theoretical release) (Plasma stability study 2; 4 h): 0.25%
remaining at 4 h, 100 μg/mL (Plasma stability study 2; 4 h): 67.1%
CR20274 release rate (actual release/theoretical release) (Plasma stability study 2; 6 h): 0.30%
remaining at 6 h, 100 μg/mL (Plasma stability study 2; 6 h): 66.3%
CR20274 release rate (actual release/theoretical release) (Plasma stability study 2; 24 h): 1.46%
Residual rate of principal component (Plasma stability study 2; 24 h): 0.62%

C#CC[C@H](NC(=O)[C@H](CCCCN)NC(=O)[C@H](CC(=O)O)NC(=O)[C@H](CC(=O)O)NC(=O)Cc1ccc(CNC(=O)NCCCC[C@H](NC(=O)N[C@@H](CCC(=O)O)C(=O)O)C(=O)O)cc1)C(=O)N[C@@H](CCCCNC(=O)CC[C@H](NC(=O)c1ccc(NCc2cnc3[nH]c(N)nc(=O)c3n2)cc1)C(=O)O)C(N)=O [CR202W4] ({EuK-CO}-[X1]DDK[Pra]K([γGlu-Pteroyl])-NH2)
solubility (Solubility study in PBS): 2800 µg/mL (≈ 1850 µM)
